According to US20030229005A1:

How the values were obtained:
Assay in all cases: cell-based or functional assay
[1] = target: collagenase 1 (UniProt P03956)
[2] = target: stromelysin 1 (UniProt P08254)
[3] = target: human Collagenase-3 (human) (UniProt P45452)

Chain of stromelysin 1 (P08254 100-477 limits assumed): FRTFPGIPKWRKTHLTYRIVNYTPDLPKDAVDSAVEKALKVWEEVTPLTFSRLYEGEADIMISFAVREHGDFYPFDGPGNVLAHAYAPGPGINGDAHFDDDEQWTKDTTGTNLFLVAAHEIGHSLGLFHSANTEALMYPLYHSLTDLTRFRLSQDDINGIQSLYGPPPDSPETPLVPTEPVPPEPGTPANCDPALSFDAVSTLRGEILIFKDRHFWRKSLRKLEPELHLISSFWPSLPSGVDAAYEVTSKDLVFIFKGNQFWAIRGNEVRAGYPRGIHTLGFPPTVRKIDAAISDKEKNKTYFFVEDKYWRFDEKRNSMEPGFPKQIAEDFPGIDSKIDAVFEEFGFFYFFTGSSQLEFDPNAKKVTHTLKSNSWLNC
Chain of collagenase 1 (P03956 100-469 limits assumed): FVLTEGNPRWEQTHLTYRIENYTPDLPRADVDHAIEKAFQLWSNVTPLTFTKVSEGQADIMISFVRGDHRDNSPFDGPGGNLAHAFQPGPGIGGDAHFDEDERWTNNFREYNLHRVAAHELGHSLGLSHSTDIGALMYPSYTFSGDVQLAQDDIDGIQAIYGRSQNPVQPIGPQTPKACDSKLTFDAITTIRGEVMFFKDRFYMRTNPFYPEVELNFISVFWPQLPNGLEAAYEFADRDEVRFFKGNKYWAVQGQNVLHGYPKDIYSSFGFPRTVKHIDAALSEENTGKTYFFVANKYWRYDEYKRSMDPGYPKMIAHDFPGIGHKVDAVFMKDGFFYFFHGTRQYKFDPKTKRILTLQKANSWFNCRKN

Average Percent Inhibition, 2.10-3.10 h, TypeIICOL 44 ug/ul [1]: 18% | Average Percent Inhibition, 2.10-3.10 h, TypeIICOL .18 ug/ul [1]: 0% | Average Percent Inhibition, 2.10-3.10 h, TypeIICOL .55 ug/ul [1]: 3% | Average Percent Inhibition, 3.10-4.10 h, TypeIICOL 1.6 ug/ul [1]: -2% | Average Percent Inhibition, 3.10-4.10 h, TypeIICOL 4.9 ug/ul [1]: 0% | Average Percent Inhibition, 3.10-4.10 h, TypeIICOL 15 ug/ul [1]: 8% | Average Percent Inhibition, 3.10-4.10 h, TypeIICOL 44 ug/ul [1]: 12% | Average Percent Inhibition, 3.10-4.10 h, TypeIICOL .18 ug/ul [1]: -1% | Average Percent Inhibition, 3.10-4.10 h, TypeIICOL .55 ug/ul [1]: 2% | Average Percent Inhibition, 4.10-5.10 h, TypeIICOL 1.6 ug/ul [1]: -3% | Average Percent Inhibition, 4.10-5.10 h, TypeIICOL 4.9 ug/ul [1]: -2% | Average Percent Inhibition, 4.10-5.10 h, TypeIICOL 15 ug/ul [1]: 6% | Average Percent Inhibition, 4.10-5.10 h, TypeIICOL 44 ug/ul [1]: 9% | Average Percent Inhibition, 4.10-5.10 h, TypeIICOL .18 ug/ul [1]: -1% | Average Percent Inhibition, 4.10-5.10 h, TypeIICOL .55 ug/ul [1]: 1% | Average Percent Inhibition, 5.10-6.10 h, TypeIICOL 1.6 ug/ul [1]: -4% | Average Percent Inhibition, 5.10-6.10 h, TypeIICOL 4.9 ug/ul [1]: -4% | Average Percent Inhibition, 5.10-6.10 h, TypeIICOL 15 ug/ul [1]: 4% | Average Percent Inhibition, 5.10-6.10 h, TypeIICOL 44 ug/ul [1]: 7% | Average Percent Inhibition, 5.10-6.10 h, TypeIICOL .18 ug/ul [1]: -1% | Average Percent Inhibition, 5.10-6.10 h, TypeIICOL .55 ug/ul [1]: 1% | Average Percent Inhibition from 1.1 to 6.6 Hours, Type II Collagen 0.18 ug/ml [2]: 15% | Average Percent Inhibition from 1.1 to 6.6 Hours, Type II Collagen 0.54 ug/ml [2]: 13% | Average Percent Inhibition from 1.1 to 6.6 Hours, Type II Collagen 1.63 ug/ml [2]: 19% | Average Percent Inhibition from 1.1 to 6.6 Hours, Type II Collagen 4.89 ug/ml [2]: 12% | Average Percent Inhibition from 1.1 to 6.6 Hours, Type II Collagen 14.67 ug/ml [2]: 18% | Average Percent Inhibition from 1.1 to 6.6 Hours, Type II Collagen 44.00 ug/ml [2]: 19% | Average Percent Inhibition, 0.10-1.10 h, TypeIICOL 1.6 ug/ul [2]: -10% | Average Percent Inhibition, 0.10-1.10 h, TypeIICOL 4.9 ug/ul [2]: 50% | Average Percent Inhibition, 0.10-1.10 h, TypeIICOL 15 ug/ul [2]: 57% | Average Percent Inhibition, 0.10-1.10 h, TypeIICOL 44 ug/ul [2]: 62% | Average Percent Inhibition, 0.10-1.10 h, TypeIICOL .18 ug/ul [2]: 22% | Average Percent Inhibition, 0.10-1.10 h, TypeIICOL .55 ug/ul [2]: 43% | Average Percent Inhibition, 1.10-2.10 h, TypeIICOL 1.6 ug/ul [2]: 24% | Average Percent Inhibition, 1.10-2.10 h, TypeIICOL 4.9 ug/ul [2]: 23% | Average Percent Inhibition, 1.10-2.10 h, TypeIICOL 15 ug/ul [2]: 28% | Average Percent Inhibition, 1.10-2.10 h, TypeIICOL 44 ug/ul [2]: 32% | Average Percent Inhibition, 1.10-2.10 h, TypeIICOL .18 ug/ul [2]: 22% | Average Percent Inhibition, 1.10-2.10 h, TypeIICOL .55 ug/ul [2]: 26% | Average Percent Inhibition, 2.10-3.10 h, TypeIICOL 1.6 ug/ul [2]: 22% | Average Percent Inhibition, 2.10-3.10 h, TypeIICOL 4.9 ug/ul [2]: 11% | Average Percent Inhibition, 2.10-3.10 h, TypeIICOL 15 ug/ul [2]: 18% | Average Percent Inhibition, 2.10-3.10 h, TypeIICOL 44 ug/ul [2]: 18% | Average Percent Inhibition, 2.10-3.10 h, TypeIICOL .18 ug/ul [2]: 15% | Average Percent Inhibition, 2.10-3.10 h, TypeIICOL .55 ug/ul [2]: 14% | Average Percent Inhibition, 3.10-4.10 h, TypeIICOL 1.6 ug/ul [2]: 18% | Average Percent Inhibition, 3.10-4.10 h, TypeIICOL 4.9 ug/ul [2]: 8% | Average Percent Inhibition, 3.10-4.10 h, TypeIICOL 15 ug/ul [2]: 14% | Average Percent Inhibition, 3.10-4.10 h, TypeIICOL 44 ug/ul [2]: 14% | Average Percent Inhibition, 3.10-4.10 h, TypeIICOL .18 ug/ul [2]: 12% | Average Percent Inhibition, 3.10-4.10 h, TypeIICOL .55 ug/ul [2]: 10% | Average Percent Inhibition, 4.10-5.10 h, TypeIICOL 1.6 ug/ul [2]: 17% | Average Percent Inhibition, 4.10-5.10 h, TypeIICOL 4.9 ug/ul [2]: 8% | Average Percent Inhibition, 4.10-5.10 h, TypeIICOL 15 ug/ul [2]: 13% | Average Percent Inhibition, 4.10-5.10 h, TypeIICOL 44 ug/ul [2]: 14% | Average Percent Inhibition, 4.10-5.10 h, TypeIICOL .18 ug/ul [2]: 12% | Average Percent Inhibition, 4.10-5.10 h, TypeIICOL .55 ug/ul [2]: 8% | Average Percent Inhibition, 5.10-6.10 h, TypeIICOL 1.6 ug/ul [2]: 16% | Average Percent Inhibition, 5.10-6.10 h, TypeIICOL 4.9 ug/ul [2]: 8% | Average Percent Inhibition, 5.10-6.10 h, TypeIICOL 15 ug/ul [2]: 14% | Average Percent Inhibition, 5.10-6.10 h, TypeIICOL 44 ug/ul [2]: 14% | Average Percent Inhibition, 5.10-6.10 h, TypeIICOL .18 ug/ul [2]: 12% | Average Percent Inhibition, 5.10-6.10 h, TypeIICOL .55 ug/ul [2]: 8% | Average Percent Inhibition from 1.1 to 6.6 Hours, Type II Collagen 0.18 ug/ml [3]: -8% | Average Percent Inhibition from 1.1 to 6.6 Hours, Type II Collagen 0.54 ug/ml [3]: -11% | Average Percent Inhibition from 1.1 to 6.6 Hours, Type II Collagen 1.63 ug/ml [3]: -11% | Average Percent Inhibition from 1.1 to 6.6 Hours, Type II Collagen 4.89 ug/ml [3]: -28% | Average Percent Inhibition from 1.1 to 6.6 Hours, Type II Collagen 14.67 ug/ml [3]: -44% | Average Percent Inhibition from 1.1 to 6.6 Hours, Type II Collagen 44.00 ug/ml [3]: -53% | Average Percent Inhibition, 0.10-1.10 h, TypeIICOL 1.6 ug/ul [3]: 16% | Average Percent Inhibition, 0.10-1.10 h, TypeIICOL 4.9 ug/ul [3]: 8% | Average Percent Inhibition, 0.10-1.10 h, TypeIICOL 15 ug/ul [3]: 6% | Average Percent Inhibition, 0.10-1.10 h, TypeIICOL 44 ug/ul [3]: 2% | Average Percent Inhibition, 0.10-1.10 h, TypeIICOL .18 ug/ul [3]: 6% | Average Percent Inhibition, 0.10-1.10 h, TypeIICOL .55 ug/ul [3]: 14% | Average Percent Inhibition, 1.10-2.10 h, TypeIICOL 1.6 ug/ul [3]: -4% | Average Percent Inhibition, 1.10-2.10 h, TypeIICOL 4.9 ug/ul [3]: -31% | Average Percent Inhibition, 1.10-2.10 h, TypeIICOL 15 ug/ul [3]: -48% | Average Percent Inhibition, 1.10-2.10 h, TypeIICOL 44 ug/ul [3]: -55% | Average Percent Inhibition, 1.10-2.10 h, TypeIICOL .18 ug/ul [3]: -9% | Average Percent Inhibition, 1.10-2.10 h, TypeIICOL .55 ug/ul [3]: -11% | Average Percent Inhibition, 2.10-3.10 h, TypeIICOL 1.6 ug/ul [3]: -15% | Average Percent Inhibition, 2.10-3.10 h, TypeIICOL 4.9 ug/ul [3]: -38% | Average Percent Inhibition, 2.10-3.10 h, TypeIICOL 15 ug/ul [3]: -59% | Average Percent Inhibition, 2.10-3.10 h, TypeIICOL 44 ug/ul [3]: -71% | Average Percent Inhibition, 2.10-3.10 h, TypeIICOL .18 ug/ul [3]: -10% | Average Percent Inhibition, 2.10-3.10 h, TypeIICOL .55 ug/ul [3]: -15% | Average Percent Inhibition, 3.10-4.10 h, TypeIICOL 1.6 ug/ul [3]: -13% | Average Percent Inhibition, 3.10-4.10 h, TypeIICOL 4.9 ug/ul [3]: -31% | Average Percent Inhibition, 3.10-4.10 h, TypeIICOL 15 ug/ul [3]: -50% | Average Percent Inhibition, 3.10-4.10 h, TypeIICOL 44 ug/ul [3]: -60% | Average Percent Inhibition, 3.10-4.10 h, TypeIICOL .18 ug/ul [3]: -8% | Average Percent Inhibition, 3.10-4.10 h, TypeIICOL .55 ug/ul [3]: -12% | Average Percent Inhibition, 4.10-5.10 h, TypeIICOL 1.6 ug/ul [3]: -12% | Average Percent Inhibition, 4.10-5.10 h, TypeIICOL 4.9 ug/ul [3]: -25% | Average Percent Inhibition, 4.10-5.10 h, TypeIICOL 15 ug/ul [3]: -41% | Average Percent Inhibition, 4.10-5.10 h, TypeIICOL 44 ug/ul [3]: -49% | Average Percent Inhibition, 4.10-5.10 h, TypeIICOL .18 ug/ul [3]: -7% | Average Percent Inhibition, 4.10-5.10 h, TypeIICOL .55 ug/ul [3]: -10% | Average Percent Inhibition, 5.10-6.10 h, TypeIICOL 1.6 ug/ul [3]: -11% | Average Percent Inhibition, 5.10-6.10 h, TypeIICOL 4.9 ug/ul [3]: -21% | Average Percent Inhibition, 5.10-6.10 h, TypeIICOL 15 ug/ul [3]: -34% | Average Percent Inhibition, 5.10-6.10 h, TypeIICOL 44 ug/ul [3]: -41% | Average Percent Inhibition, 5.10-6.10 h, TypeIICOL .18 ug/ul [3]: -6% | Average Percent Inhibition, 5.10-6.10 h, TypeIICOL .55 ug/ul [3]: -10%
Substance: bovine type II collagen (from UniProt P02459 182-1241)
